Measurements: patent US20130195866

Target: T1, NFATc4 (nuclear factor of activated T cells), endogenous in mouse cortical neurons (UniProt Q8K120)
T1 sequence: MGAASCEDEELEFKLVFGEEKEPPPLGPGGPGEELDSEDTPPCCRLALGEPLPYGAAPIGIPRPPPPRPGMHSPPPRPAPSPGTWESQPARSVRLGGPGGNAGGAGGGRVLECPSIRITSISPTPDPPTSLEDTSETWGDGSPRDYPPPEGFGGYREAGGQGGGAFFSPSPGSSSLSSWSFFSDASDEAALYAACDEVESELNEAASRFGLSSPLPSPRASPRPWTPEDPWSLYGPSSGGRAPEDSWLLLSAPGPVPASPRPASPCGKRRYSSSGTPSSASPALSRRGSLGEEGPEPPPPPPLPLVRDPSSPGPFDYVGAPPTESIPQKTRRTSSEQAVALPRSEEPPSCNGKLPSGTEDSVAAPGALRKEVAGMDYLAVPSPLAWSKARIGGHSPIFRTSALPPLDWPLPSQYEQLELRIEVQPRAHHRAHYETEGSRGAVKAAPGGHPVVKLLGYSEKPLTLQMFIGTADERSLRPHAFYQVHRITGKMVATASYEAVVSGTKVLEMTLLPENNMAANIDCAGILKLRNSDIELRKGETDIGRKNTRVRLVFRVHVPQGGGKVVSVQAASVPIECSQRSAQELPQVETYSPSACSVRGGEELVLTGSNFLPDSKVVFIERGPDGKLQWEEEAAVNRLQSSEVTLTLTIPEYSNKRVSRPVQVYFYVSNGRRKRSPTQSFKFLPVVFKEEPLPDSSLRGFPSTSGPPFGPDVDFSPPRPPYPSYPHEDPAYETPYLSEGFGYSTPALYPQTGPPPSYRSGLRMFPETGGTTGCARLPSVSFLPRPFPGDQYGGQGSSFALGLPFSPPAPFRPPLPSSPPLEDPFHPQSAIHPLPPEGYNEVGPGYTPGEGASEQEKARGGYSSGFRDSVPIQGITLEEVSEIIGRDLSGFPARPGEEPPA

With “HA-tagged constitutively active calcineurin, CaNCA (mouse CaN amino acid residues 1-399, 45 kDa form)” the “NFATc4 nuclear distribution in neurons of injected mouse brain” value was “CaNCA-expressing neurons showed high levels of NFATc4 nuclear distribution (data not shown)”.
